Earlier results on one substance are cited in publication PMC5956149.

As a reminder, the Kd is the concentration at which binding is half-saturated.

The target in this data set is CheA (Escherichia coli) (UniProt P07363). The following applies: cited from earlier work.

For the substance CheA (from UniProt P07363), the Kd is 400 nM.
